Publication PMC7772510 (Molecules and Cells, 2020)

Target: T1, His6-αX I-domain (UniProt P20702 146-332)
T1 sequence (looked up): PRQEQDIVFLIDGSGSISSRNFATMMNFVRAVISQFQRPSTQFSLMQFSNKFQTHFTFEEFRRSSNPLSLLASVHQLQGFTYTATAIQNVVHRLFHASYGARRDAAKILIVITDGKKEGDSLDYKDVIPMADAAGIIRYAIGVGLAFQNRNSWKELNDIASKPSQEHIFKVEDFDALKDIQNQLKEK
Assay: ELISA

- binding result: binds
Binder: NLDEDIIAEENIVSRSEFPESWLWNV (domain or fragment, human, UniProt P01024 750-775, looked up) [GST-αNTN]
